Data on one molecule can be found in article PMC3351694 (Virology, 2012).

Where two headings read alike, the source gives them in different places.

Common to all, as to assay: SEC
(In general: Size exclusion chromatography separates by hydrodynamic size, large species first.)

Assay [1] addresses T1, bacteriophage P22 coat protein (bacteriophage P22, UniProt P26747 1-430).
The target in assay [2] is T1, bacteriophage P22 coat protein. The source holds these as a separate data set.
The target is the same in assay [3]. The source holds these as a separate data set.

T1 sequence (P26747 whole entry): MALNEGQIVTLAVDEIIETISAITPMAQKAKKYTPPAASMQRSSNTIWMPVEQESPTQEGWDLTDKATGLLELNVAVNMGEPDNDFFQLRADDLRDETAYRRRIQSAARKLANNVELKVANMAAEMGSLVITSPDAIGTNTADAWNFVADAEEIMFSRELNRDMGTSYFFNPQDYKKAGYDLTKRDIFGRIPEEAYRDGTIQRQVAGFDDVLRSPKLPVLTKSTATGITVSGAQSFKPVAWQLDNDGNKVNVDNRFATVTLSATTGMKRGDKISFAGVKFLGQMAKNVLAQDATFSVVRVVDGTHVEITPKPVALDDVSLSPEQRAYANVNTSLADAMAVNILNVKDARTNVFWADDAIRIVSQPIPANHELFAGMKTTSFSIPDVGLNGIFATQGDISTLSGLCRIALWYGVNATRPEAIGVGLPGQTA

B1: bacteriophage P22 scaffolding protein (natural protein, UniProt P26748 1-303, looked up)
chain: MEPTTEIQATEDLTLSGDHAAASADSLVVDNANDNAGQEEGFEIVLKDDETAPKQDPAKNAEFARRRIERKRQRELEQQMEAVKRGELPESLRVNPDLPPQPDINAYLSEEGLAKYDYDNSRALAAFNAANTEWLMKAQDARSNAVAEQGRKTQEFTQQSAQYVEAARKHYDAAEKLNIPDYQEKEDAFMQLVPPAVGADIMRLFPEKSAALMYHLGANPEKARQLLAMDGQSALIELTRLSERLTLKPRGKQISSAPPADQPITGDVSAANKDAIRKQMDAAASKGDVETYRKLKAKLKGIR
On to B1, for which, in assay [1], the “stoichiometry N” value was ~360 scaffolding protein sites per PC. In assay [2], the “midpoint of the binding fit (K's, input S/C ratio)” value worked out at 0.88 input S/C molar ratio and the “stoichiometry N” value was 294 ± 33 scaffolding proteins per PC. In assay [3], the “1/KS (dissociation constant of scaffolding protein for PC), Snum 300” value stood at 0.77 ± 0.7 µM; the “1/KS (dissociation constant of scaffolding protein for PC), Snum 360” value is 1.29 ± 0.95 µM; the “1/KS (dissociation constant of scaffolding protein for PC), Snum 420” value was 1.88 ± 1.25 µM.
